Reference: US20240226314A1 (Sanofi, published 2024)
Where two headings read alike, the source gives them in different places.

How the values were obtained:
[1] = biological target: His-tagged mouse TfR ectodomain (mTFRC_89_764; mature protein) (mouse, UniProt Q62351 89-763); assay: SPR, His-tagged mTfR ectodomain captured on anti-His
Procedure: (§1) Experiments were run on Bruker MASS-2 instrument with HBS-EP+ as running buffer and sample diluent (Cytiva Life Sciences, #BR100826). HCA sensorchips (Bruker, #1862614) were immobilized with anti his antibody (His capture kit, Cytiva Life Sciences, #28995056) following provider's instructions. About 10 000 RU of anti his was obtained. […] Surface was regenerated with one 1 min pulse of 10 mM Glycine-HCl pH1.5.

[2] = biological target: T1, His-tagged cynomolgus monkey TfR ectodomain (cyTFRC_89_760; mature protein) (cynomolgus monkey (Macaca fascicularis), UniProt Q5RDH6 89-760 (Pongo abelii entry)); assay: SPR; KD on cTfR against KD on hTfR
T1 construct: also called cTfR; cTfR ectodomain
T1 chain: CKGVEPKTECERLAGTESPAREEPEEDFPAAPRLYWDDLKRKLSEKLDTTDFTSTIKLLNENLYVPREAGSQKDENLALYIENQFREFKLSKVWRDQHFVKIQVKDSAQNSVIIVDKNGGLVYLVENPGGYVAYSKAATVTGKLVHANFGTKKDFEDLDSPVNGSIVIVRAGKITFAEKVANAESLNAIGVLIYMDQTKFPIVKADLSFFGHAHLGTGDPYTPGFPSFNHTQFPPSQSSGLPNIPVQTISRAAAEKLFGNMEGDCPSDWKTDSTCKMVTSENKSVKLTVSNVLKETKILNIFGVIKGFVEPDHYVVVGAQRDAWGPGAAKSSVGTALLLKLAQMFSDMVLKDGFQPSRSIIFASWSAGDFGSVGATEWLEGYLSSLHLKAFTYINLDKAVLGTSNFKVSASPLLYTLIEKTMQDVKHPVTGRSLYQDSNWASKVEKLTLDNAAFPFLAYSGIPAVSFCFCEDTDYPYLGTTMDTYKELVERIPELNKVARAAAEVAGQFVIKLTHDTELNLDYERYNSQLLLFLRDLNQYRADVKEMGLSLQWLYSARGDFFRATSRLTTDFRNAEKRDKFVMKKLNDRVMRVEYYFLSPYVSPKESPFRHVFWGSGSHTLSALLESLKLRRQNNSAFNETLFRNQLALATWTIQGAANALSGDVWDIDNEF
Procedure: as §1

[3] = biological target: T2, His-tagged human TfR ectodomain (hTFRC_89-760_G142S; mature protein) (human, UniProt P02786 89-760); assay: SPR, His-tagged TfR ectodomain captured on anti-His, 1:1 fit
T2 construct: It carries the G142S haplotype; also called hTfR ectodomain
Procedure: (§2) Binding of the humanized Fab variants to human, cynomolgus and mouse TfR was assessed using SPR at pH 7.4. Experiments were run on a Bruker MASS-2 instrument with HBS-EP+ as running buffer and sample diluent (Cytiva Life Sciences, #BR100826). HCA sensor chips (Bruker, #1862614) were immobilized with anti-His antibody (His capture kit, Cytiva Life Sciences, #28995056) following manufacturer's instructions. About 10,000 RU of anti-His was obtained. His-tagged hTfR ectodomain (SEQ ID NO: 39), cTfR ectodomain (SEQ ID NO: 40) or mouse TfR ectodomain (SEQ ID NO: 41) (5 μg/ml) was captured for 1 min at 10 μL/min. Concentration series of the humanized Fab variants were then injected for 4 min at 30 μL/min over hTfR surfaces and dissociation was monitored for 5 min. Surface was regenerated with one 1 min pulse of 10 mM glycine-HCl at pH 1.5.

[4] = biological target: T1, His-tagged cynomolgus monkey TfR …; assay: as above
Procedure: as §2

[5] = biological target: T2, His-tagged human TfR ectodomain …; assay: as above; remark: listed apart in the source
Procedure: as §1

[6] = biological target: T1, His-tagged cynomolgus monkey TfR …; assay: as above
Procedure: as §1

[7] = biological target: T1, His-tagged cynomolgus monkey TfR …; assay: SPR; KD on cTfR against KD on hTfR
Procedure: as §2

His-tagged mouse TfR ectodomain (mTFRC_89_764; mature protein), sequence (Q62351 other isoform, or with tags, fused parts or gaps): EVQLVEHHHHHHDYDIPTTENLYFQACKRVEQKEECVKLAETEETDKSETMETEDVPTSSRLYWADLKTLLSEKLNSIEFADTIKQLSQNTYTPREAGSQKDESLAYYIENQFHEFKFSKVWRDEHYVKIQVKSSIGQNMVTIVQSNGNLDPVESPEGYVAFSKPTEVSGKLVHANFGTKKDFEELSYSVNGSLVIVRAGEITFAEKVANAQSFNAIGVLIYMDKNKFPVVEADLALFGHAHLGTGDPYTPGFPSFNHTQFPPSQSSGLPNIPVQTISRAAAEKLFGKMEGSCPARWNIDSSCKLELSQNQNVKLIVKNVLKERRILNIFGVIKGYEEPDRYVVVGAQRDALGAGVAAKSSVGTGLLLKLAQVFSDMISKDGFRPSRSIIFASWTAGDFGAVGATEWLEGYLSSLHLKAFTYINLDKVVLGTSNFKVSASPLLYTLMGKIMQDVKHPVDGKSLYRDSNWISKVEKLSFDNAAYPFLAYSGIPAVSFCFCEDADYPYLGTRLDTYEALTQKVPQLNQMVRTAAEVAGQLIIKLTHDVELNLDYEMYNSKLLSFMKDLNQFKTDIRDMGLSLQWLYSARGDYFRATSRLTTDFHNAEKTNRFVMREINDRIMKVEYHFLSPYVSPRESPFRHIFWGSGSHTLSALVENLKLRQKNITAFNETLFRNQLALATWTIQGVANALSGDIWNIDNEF

B1: 531-1L2_mouse mAb (antibody, IgG1, V domains shown)
VH: QVQLQQPGAELVSPGASVKLSCKASDYTFTRYWLNWVKQRPGQGLEWIGMIDPSVSECHYSQMFKDKATLTVDKSSSTAYMLLNSLTSEDSAVYYCSQIRLPYYYAMDSWGQGTSVTVSS
VL: DIQMTQTPSSLSASLGDRVTISCRASQDINSFLNWYQQKPDGTVKLLIYYTSRLHSGVPSRFSGSGSGTDYSLTIGNLDQEDIATYFCQQGNTLPRTFGGGTKLELK
notes: constant regions are not
- binding result [1]: no binding
- Cynomolgus/human KD ratio [2]: 3.9
- Kd [3]: 6.93 nM
- Kd [4]: 27 nM
- Kd [5]: 6.9 nM
- Kd [6]: 27 nM
- Cynomolgus/human KD ratio [7]: 3.9
